The text below walks through data of patent US6794159.

The target in this data set is Alanyl-human growth hormone.

B1: Aeromonas aminopeptidase (protein)
chain: MPPITQQATVTAWLPQVDASQITGTISSLESFTNRFYTTTSGAQASDWIASEWQALSASLPNASVKQVSHSGYNQKSVVMTITGSEAPDEWIVIGGHLDSTIGSHTNEQSVAPGADDDASGIAAVTEVIRVLSENNFQPKRSIAFMAYAAEEVGLRGSQDLANQYKSEGKNVVSALQLDMTNYKGSAQDVVFITDYTDSNFTQYLTQLMDEYLPSLTYGFDTCGYACSDHASWHNAGYPAAMPFESKFNDYNPRIHTTQDTLANSDPTGSHAKKFTQLGLAYAIEMGSATGDTPTPGNQ
On to B1, for which the % cleavage (batch mode, 4-6° C., 16 hrs) was 48%; the % cleavage (batch mode, 4-6° C., 54 hrs) is 65%; the % cleavage (batch mode, 4-6° C., 89 hrs) was found to be 75%; the % cleavage (batch mode, ambient, 16 hrs) amounted to 82%. The protein further gave a % cleavage (batch mode, ambient, 54 hrs) greater than 97%; a % cleavage (batch mode, ambient, 89 hrs) greater than 97%; a % cleavage (recirculation, 28° C., 2.92 hrs, 1.06 passes, RP-HPLC) greater than 93%; a % cleavage (recirculation, 28° C., 5.73 hrs, 2.08 passes, tryptic map) greater than 96.1%. This protein also displayed a % cleavage (recirculation, 28° C., 15.57 hrs, 5.66 passes, tryptic map) greater than 98.6%; a % cleavage (recirculation, 28° C., 17.73 hrs, 6.45 passes, tryptic map) greater than 98.6%; a % cleavage (recirculation, 28° C., 20.4 hrs, 7.42 passes, tryptic map) greater than 98.6%; a % cleavage (recirculation, 28° C., 23.4 hrs, 8.8 passes, tryptic map) greater than 98.8%. Further, the % cleavage (recirculation, 28° C., 24.4 hrs, 8.87 passes, tryptic map) is greater than 98.8%; the % cleavage (recirculation, 28° C., 39.7 hrs, 14.44 passes, tryptic map) is greater than 99.2%; the “removal of Ala from Ala-hGH by AAP in free solution (Ala-hGH 3 mg/ml; AAP 2.0, 3.0, 4.0 units/ml; room temperature; ES/MS)” value is reported as “Most of the reactions for the three highest concentrations of AAP were complete by 6 hours”.

B2: Cu2+-substituted Aeromonas aminopeptidase (protein)
chain: MPPITQQATVTAWLPQVDASQITGTISSLESFTNRFYTTTSGAQASDWIASEWQALSASLPNASVKQVSHSGYNQKSVVMTITGSEAPDEWIVIGGHLDSTIGSHTNEQSVAPGADDDASGIAAVTEVIRVLSENNFQPKRSIAFMAYAAEEVGLRGSQDLANQYKSEGKNVVSALQLDMTNYKGSAQDVVFITDYTDSNFTQYLTQLMDEYLPSLTYGFDTCGYACSDHASWHNAGYPAAMPFESKFNDYNPRIHTTQDTLANSDPTGSHAKKFTQLGLAYAIEMGSATGDTPTPGNQ
On to B2, for which the “rate of Ala-hGH cleavage, batch and recirculating column modes, compared with Zn-AAP (RP-HPLC)” value is recorded as “Cu^2+-substituted AAP was the most active against Ala-hGH”.
